Laboratory results as given in the DeepSol protein solubility set.

Experiment: soluble on expression in E. coli; label from the status in PepcDB or PDB records

Sequence	soluble on expression in E. coli
MVKTMKWARIGDIIVLNREADDPEALLEMEGVRSVIRVEGIHGPLRRPRVRVLAGSGTETVHKENGCLFRIDLSRVMWSRGNINERARIPSLVEEGETVVDMFAGIGYFSIPVAVHSDPGRVYSVELNPDSFELLKSNITLNRVEGIIEPILGDCREVAPELDADRVIMGYVGRTHHFLDAAMECVRDGGVIHYHETAPEAIRFSRPLRRIERAAHPRRVSLLDKRVIKKYSPGVWHVVLDVRIH	soluble
MSLEQELKLLFLRAHQRALSSLQFTEEAVDFLISCADGDARRLLNLLEQTKTACLTIKTAVVDVELLHNVIVQNSRRFDKGGEAFYDQISALHKSVRGSNPDAALYWLCRMLDGGVDPYYLARRIIRMSWEDIGLADPKAIQIANDAAATYERLGSPEGELALAQAVIYLSVAAKSNAGYVAFNQAMEFIKRDKSREVPIHLRNAPTQLMKKLGYGHEYRYAHDEPHGYAAGECYLPEGMPEVNWYNPVQRGLETKIAEKLAFLRQLDKDVKKEGHHHHHH	not soluble
MALRDLSSSLSSSSSPELHVLAVDDSFVDRKVIERLLKISACKVTTVESGTRALQYLGLDGDNGSSGLKDLKVNLIVTDYSMPGLTGYELLKKIKESSALREIPVVIMSSENIQPRIEQCMIEGAEEFLLKPVKLADVKRLKELIMRGGEAEEGKTKKLSPKRILQNDIDSSPSSSSTSSSSSSHDVSSLDDDTPSSKRIKLESRG	not soluble
MDKVPQAVRDYLMEAHQLAAQWSLPNDRGDYINSKSIPIKSVAVIGGGTMGRGIAIAFCLSGFETYLVEVNNKAAEFCKNELEITYKREKAFRRLNDSKVEKLRKNLQITTDFQKLNNCDLIVEAVFEDMKLKKELFTKLDKICKPSCIFGTNTSSLDLNEMSSVLRDPTKVVGIHFFNPANLIRMVEVIYGSKTSSKAVATAFEACRSIKKLPVLVGNCPAFVFNRLLGVYLNQSQKLMYEYGYLPHQIDKIITNFGFLMGPLTVADMNGLDVMEKLKKENGWPASDFEKEVWRQKRYGRKTNKGYYKYDPNTHKKENDIEMEQLIRKFSSAASPNIQILNDQDAVNFLLYPMVNEGLLCIEEGIIHHESLIDIMFILGFGWPVATGGPMRFGWLQGIEKVASTIILWNSLEPNDRTYKVAATLQNVDRKNFAAKL	not soluble
MMINVHSYESMGTFDGPGLRLVVFLQGCNFRCLYCANPDTIAGKGGTPTPPEEIVRMAMSQRPFFGKRGGITFSGGEPTFQAKALVPLVRELKERGIHVCLDSNGGLWNEDVEELFKLTDLVLLDIKEFNPNRHQTLTGRSNEQTIRTAAWLEEQGKPFWLRYVLVPGYSDFEEDIRALGEALGKYKMIQRVEILPYHTLGVHKYEAMGQEYKMKGVKENTPEQLEKAAEVFKEYFTTVVVNLEHHHHHH	soluble
MGHHHHHHSHSQIQGVQTNDDLNNDSDDSSDNCVIVGFVKPLAERTPELVELSSDSEDLGSYEKMETVKTQEQEQSYSSGDSDVSRCSSPHSVLGKDEQINKGHCDSSTRIKSKKEEKRSTSLSSPRNLNSSVRGDRVYSPYNHRHRKRGRSRSSDSRSQSRSGHDQKNHRKHHGKKRMKSKRSRSRESSRPRGRRDKKRSRTRDSSWSRRSQTLSLSSESTSRSRSRSSDHGKRRSRSRNRDRYYLRNNYGSRYKWEY	not soluble
FRYDNTTPKTLRHVALLLEQGIETNDFYSGLHRRELKQTRLEGYILQHFSIIDGCVGVMKLTSELLAEYDVTANESAAFVNSFSDVE	soluble
MGILFTRIWRLFNHQEHKVIIVGLDNAGKTTILYQFSMNEVVHTSPTIGSNVEEIVINNTRFLMWDIGGQESLRSSWNTYYTNTEFVIVVVDSTDRERISVTREELYKMLAHEDLRKAGLLIFANKQDVKECMTVAEISQFLKLTSIKDHQWHIQACCALTGEGLCQGLEWMMSRLKIRLEHHHHHH	soluble
MAHHHHHHMPTFSDIMAARKALDGYVYETPIIESNALHGKTRHESVLLKCENLQRTGSYHVRGMTYRVIRAKEEDLGINNFVTHSSGNGGAALACAASNFQSTAHVVVPEDTNALITRSIRLYHGNFYYCKPDLKSRVEMEARLHSEFNKVAGKKRNQCMLVNPYSDEAIIAGHGTTGIEIMLQTDCSVDCVVIPVGGGALLAGAAIAVKGMKPHVGVFAAELAVPPDHYTVFKRGEVIEARKLKGDEKRPKGNKHGIRTELTDLANSYIDRYVDGVVHVSKEEMCYAFRYVYERCKLVVDTNAAIAVAAVLACPQELSNYRRICIVLSGGNVDLNDVPKIATARL	soluble
GSMTEIALIGNPNSGKTSLFNLITGHNQRVGNWPGVTVERKSGLVKKNKDLEIQDLPGIYSMSPYSPEEKVARDYLLSQRADSILNVVDATNLERNLYLTTQLIETGIPVTIALNMIDVLDGQGKKINVDKLSYHLGVPVVATSALKQTGVDQVVKKAAHTTTSTVGDLAFPIYDDRLEAAISQILEVLGNSVPQRSARFYAIKLFEQDSLVEAELDLSQFQRKEIEDIIRITEEIFTEDAESIVINERYAFIERVCQMAESHTEDFALTLS	soluble
EVKLVESGGGLVKPGGSLKLSCAASGFTFSRYALSWVRQTADKRLEWVASIVSGGNTYYSGSVKGRFTISRDIARNILYLQMSSLRSEDTAMYYCARAYYGYVGLVHWGQGTLVTVSSAKTTPPSVYPLAPGSAAQTNSMVTLGCLVKGYFPEPVTVTWNSGSLSSGVHTFPAVLQSDLYTLSSSVTVPSSTWPSETVTCNVAHPASSTKVDKKIVPRDCG	soluble
MGHHHHHHSHMFPQAQESPAAVEVLTQVVHPSAAMASQERAQVAFKKMVQGVLQFAVCDTAAAGQLVKDGVTQVVVSEEGAVHMVAGEGAQIIMQEAQGEHMDLVESDGEISQIIVTEELVQAMVQESSGGFSEGTTHYILTELPPGVQGEPGLYSHTVLETADSQELLQAGATLGTEAGAPSRAEQLASVVIYTQEGSSAAAAIQSQRESSELQEA	not soluble
MLGIDLGSNTLRAVQMDEKLNKLKEYEFVIGAAKNLNQSGEISKEAIQRLKNTLSILAKEQDLSKARAVATAAFRKASNTNEIFAHLKKEFGIDFKLIDAKSEAKISVLGMQSGLRRLKIWGEFAYCDLGGASCELSFGKSFKSFDFGIISFYEKNYHSYYKSCISYKKLIKKYPKFIINIKDKKLKIHFLIANPYLKHLAFRAFDEVAMIKKELRSLGAKTVVLNSGVPTTLSALKQNISYEKYEATKVNGKKLCHKDFLNYAIKLFHMEEKKAIKEVGTMRKNYLSAGCLLFYALFDKHKLLVIDEGLREGVCLASMKNIKF	not soluble
MGSDKIHHHHHHMINSRARRNLIAQDSGEHRHDFPQILIGWRGEIECEFSKGSGRLNNGLVGIVPNAAEHLFRGLNNNSELLVIDVVLEDPYIQAMEQACNLSFSETLFKQPHFVSLAPEMLPLLEYSANQLLLDKKTATPQLNCQLVSLFMTQLSQMYSPEIKSSAINQRIEATRLNDIIDQRLARPPNNTELANLLHLSESHFYCICQQQFGVSPQKYVMRRRMQRAKFLLLNSKIPLSALASELGFSDVSSFSRAYKKYYQQPPGQTRTLFQLGLNANHASIRK	not soluble
MSLKWTIYQLHQMPKQSFEFDETVELNELTKLNSDIRRISPVRVKGRADIKSKQVSFDFTISGEMLLPCSRTLVDVPYPFEISTKELFIFHHTDDIEDDDVHIVEDDTIDITPIVKEEILLEIPMQIFCESEQEKGAAPQEGKDWQVISEEDKKNQVDPRLAALEKLLKQDDESEGHHHHHH	soluble
MSKYGCPTSDTDPNSVTMITKRGPVNKTLKSAAQLNAAQRAGVDISTEKKTMSGGNRQHSANKNTLRLDEETEELHHQKVALSLGKVMQQARATKGWTQKDLSTQINEKPQVVGEYESGKAVPNQQIMAKMERALGVKLRGKDIGMPFSTKPPAKK	not soluble
MVTDEAGLLSNAQEEVMNGRLRAIRSSHAVEFAVVTLPSIGDAPLEDFTLKLARQWGVGNEKNNNGLLLVLVLDQRRVRFETGYGLEGYLPDGLLSRIIHDRMIPHFRSGNYAEGLSEGVLAVQQVLDGSYDVKPLEHHHHHH	not soluble
SAGNAEPPPAGAACPQDRRSCSGRAGGDRVWEDGEHPAKKLKSGGDEERREKPPKRKIVLLMAYSGKGYHGMQRNVGSSQFKTIEDDLVSALVRSGCIPENHGEDMRKMSFQRCARTDKGVSAAGQVVSLKVWLIDDILEKINSHLPSHIRILGLKRVTGGFNSKNRCDARTYCYLLPTFAFAHKDRDVQDETYRLSAETLQQVNRLLACYKGTHNFHNFTSQKGPQDPSACRYILEMYCEEPFVREGLEFAVIRVKGQSFMMHQIRKMVGLVVAIVKGYAPESVLERSWGTEKVDVPKAPGLGLVLERVHFEKYNQRFGNDGLHEPLDWAQEEGKVAAFKEEHIYPTIIGTERDERSMAQWLSTLPIHNFSATALTAGGTGAKVPSPLEGSEGDGDTD	soluble
MGHHHHHHSHMATASPSVFLLMVNGQVESAQFPEYDDLYCKYCFVYGQDWAPTAGLEEGISQITSKSQDVRQALVWNFPIDVTFKSTNPYGWPQIVLSVYGPDVFGNDVVRGYGAVHVPFSPGRHKRTIPMFVPESTSKLQKFTSLCLVASSDLQAAPPTEDK	not soluble
MGSDKIHHHHHHMINETRTTLDQSEVDHFSRIAAEWWNPHGKFRPLHQFNPTRLAYIREKICLELHRDPVSLKPFENLKILDIGCGGGLLCEPMARLGAMVVGADASQTNIEVAKIHAAQNGLSIDYRTTTAEALATEGEQFDIILNMEVVEHVADVNLFIEATAKMLKPQGLMFISTLNRTWKAWGLAIIGAEYILRWLPKGTHNYKKFLKPRELKNLLLQNALTVVDEIGVTYNPLNDSWNRSKDMNVNYLLLAKKS	not soluble
MMLVRSVFRSQLRPSVSGGLQSASCYSSLSAASAEAERTIREGPRNDWSRDEIKSVYDSPLLDLLFHGAQVHRHVHNFREVQQCTLLSIKTGGCSEDCSYCPQSSRYSTGVKAQRLMSKDAVIDAAKKAKEAGSTRFCMGAAWRDTIGRKTNFSQILEYIKEIRGMGMEVCCTLGMIEKQQALELKKAGLTAYNHNLDTSREYYPNVITTRSYDDRLETLSHVRDAGINVCSGGIIGLGEAEEDRIGLLHTLATLPSHPESVPINALLAVKGTPLEDQKPVEIWEMIRMIGTARIVMPKAMVRLSAGRVRFSMSEQALCFLAGANSIFTGEKLLTTPNNDFDADQLMFKTLGLIPKPPSFSEDDSESENCEKVASASH	not soluble
MINITSMRDSFGDWAEKFLKSKEADGVSVSQLNSYKNYCRNHLSPLYMKSLSEILPADIQSIINETKLAKNTLKAIRNTASQIFRLAIENRAIDFNPADYVRIPKIAPEFHRDALEHHHHHH	soluble
MGSDKIHHHHHHLIRGLYTAGAGMMLQMARQDVVANNLANVNTSGFKKNTAVAKAFPDMLISRLGECKEDKQGQLKVQSPVVIGRLGTGASISGIYTDFDNNNLKKTDSPCDLAITGAGYFVVQTPEGQRFTRCGEFKINSEGILTTNSGYPVLDSNDSPITIEGEFLIDEQGNINVDGENITRLKIVNFNDLQILERLGDNLLNSPEEPYVMERPEMLQGYIEQSNVNAVKEMVTLISVVRAYESLQKMVQAEDEIMGQAIDKVGSIN	not soluble
MARIKLIDETTDLSQVRRPIGWDLEVNGVPYDVYRIDGYNHTLGGKFSENCYWACPAGKKPTYKNLIEFNGDAPTWGIVFDRSNYTKTKWDETSVECNGICWITRNGKKFYSIPARYMDYGLAKAQYILVKLLEECPLWLSERNWKEKAIGRKIWYENQPAKIIRINEENELWIEPDGIPVFKAPAHWDHDDYSDYENGLRVDLLSPNIYWFRD	not soluble
